Target: T1, His-DDB1 (human DNA damage-binding protein 1 with N-terminal His6-tag) (human, UniProt Q16531 1-1140)
T1 construct: Vector-derived residues between the His6-tag and DDB1 (pFastBacHTB) are not described; also called His-DDB1 proteins
Assay: SPR (Biacore), His-DDB1 amine-coupled on CM5 chip, steady state affinity fit; graded cell, table key: B: Kd 20-100 uM (lower end of the range)

T1 sequence (Q16531 other isoform, or with tags, fused parts or gaps limits assumed): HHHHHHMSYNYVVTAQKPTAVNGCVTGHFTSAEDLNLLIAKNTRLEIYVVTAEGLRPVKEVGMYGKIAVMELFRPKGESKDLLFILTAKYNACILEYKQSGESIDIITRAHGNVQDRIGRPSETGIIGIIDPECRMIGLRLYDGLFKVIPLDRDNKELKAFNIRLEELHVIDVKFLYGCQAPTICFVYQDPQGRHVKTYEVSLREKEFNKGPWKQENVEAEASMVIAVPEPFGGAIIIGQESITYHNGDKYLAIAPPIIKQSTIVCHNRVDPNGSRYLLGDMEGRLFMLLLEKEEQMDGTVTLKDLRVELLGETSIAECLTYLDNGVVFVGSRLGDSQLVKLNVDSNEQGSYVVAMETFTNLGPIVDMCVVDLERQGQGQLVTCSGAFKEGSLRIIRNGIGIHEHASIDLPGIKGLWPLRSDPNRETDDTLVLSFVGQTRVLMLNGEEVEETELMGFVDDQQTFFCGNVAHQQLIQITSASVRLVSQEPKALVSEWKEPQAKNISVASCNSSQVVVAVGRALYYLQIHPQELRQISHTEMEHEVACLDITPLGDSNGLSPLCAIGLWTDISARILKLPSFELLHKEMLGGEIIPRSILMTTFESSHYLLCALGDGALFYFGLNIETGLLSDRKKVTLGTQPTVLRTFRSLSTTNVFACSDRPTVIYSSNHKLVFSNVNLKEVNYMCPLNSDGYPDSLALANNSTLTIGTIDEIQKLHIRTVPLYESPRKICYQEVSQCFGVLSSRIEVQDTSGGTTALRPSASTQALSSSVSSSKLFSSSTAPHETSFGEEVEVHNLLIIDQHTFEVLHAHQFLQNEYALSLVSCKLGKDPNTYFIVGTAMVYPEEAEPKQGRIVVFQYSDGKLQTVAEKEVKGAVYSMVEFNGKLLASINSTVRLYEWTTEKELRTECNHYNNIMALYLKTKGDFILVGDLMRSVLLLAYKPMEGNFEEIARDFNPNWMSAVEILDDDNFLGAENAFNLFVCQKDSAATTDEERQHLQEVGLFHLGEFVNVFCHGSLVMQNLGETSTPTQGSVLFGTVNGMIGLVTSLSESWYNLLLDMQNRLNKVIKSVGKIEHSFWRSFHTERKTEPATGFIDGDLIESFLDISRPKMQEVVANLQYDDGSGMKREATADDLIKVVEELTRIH

| Binder | Kd |
| --- | --- |
| SRLNRRASF [Peptide 7 (SEQ ID NO: 7)] | 20 to 100 µM |

Target: T1, His-DDB1 (human DNA damage-binding …)
Assay: SPR (Biacore), His-DDB1 amine-coupled on CM5 chip, steady state affinity fit; graded cell, table key: A: Kd < 20 uM

| Binder | Kd |
| --- | --- |
| ILPKVLHKRTLGL [Peptide 3 (SEQ ID NO: 3)] | < 20 µM |
| ILPKVLHKRTFGL [Peptide 4 (SEQ ID NO: 4)] | < 20 µM |
| NFTSRLNRRASFP [Peptide 6 (SEQ ID NO: 6)] | < 20 µM |
| KVLHKRTLG [Peptide 5 (SEQ ID NO: 5)] | < 20 µM |
| ILPKVWHKRELGLS [Peptide 2 (SEQ ID NO: 2)] | < 20 µM |
| ILPKVLHKRTLGLS (No terminal modifications are stated for the tested peptide) [Peptide 1 (SEQ ID NO: 1)] | < 20 µM |
